Reference: article PMC11180146 (2024)

Key:
[1] = biological target: RNAseB, glycosylated (HM N-glycan at N34, mainly Man5 and Man6) (beef (bovine), as said of the protein in general) (UniProt P61823); test: SPR; glycosylated RNAseB (Man5/6) amine-coupled to a CM5 chip on flow cell 2 (150 RU), deglycosylated RNAseB on control flow cell 1; enzyme as analyte, 120 s injection, 600 s dissociation; HBS-EP running buffer; Biacore X100
[2] = biological target: T1, RNAseB, glycosylated (HM N-glycan at N34, mainly Man5 and Man6) (beef (bovine), as said of the protein …, UniProt P61823 27-150, HM N-glycan (mainly Man5 and Man6) at N34); test: SPR
T1 chain: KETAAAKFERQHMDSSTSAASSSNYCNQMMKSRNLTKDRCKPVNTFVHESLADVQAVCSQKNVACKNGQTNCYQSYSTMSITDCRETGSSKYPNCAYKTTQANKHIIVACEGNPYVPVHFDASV

B1: BT1285_(D161A-E163A), catalytically inactive variant of the GH18 endo-β-N-acetylglucosaminidase BT1285 (enzyme)
chain: MPVNQSDNNQSEVVTRSATGIKNIVYIEVNDINPLNAGSYIMDDAPFFDYVILFAANIRGVGSDATLYNNPNVQYILDHKDTLIKPLQDKGIKVLLGLLGDHTGLGFANMNSAQTEQFATAVANAVSQYGLDGVDFADAWAEYGRNGYPSGSTGSFSNLITALHNKMPGKTITVFNYGYTSELTGVNSYIDYGIYAFFNSPSWSTGFGMPNSKFAPYTINLNSAPSAASAQLYSGQVASKGYGAIGYYDLRANNIVSVLNGVAKGAFKSTCTYDGNSYPKNY
In the case of B1, the Kd [1] is reported as 3.5 nM and the koff [2] is reported as 0.000419 s⁻¹.
